T1: EsCas13d, nuclease-dead (Eubacterium siraeum, UniProt B0MS50, R295A;H300A;R849A;H854A)
T1 sequence: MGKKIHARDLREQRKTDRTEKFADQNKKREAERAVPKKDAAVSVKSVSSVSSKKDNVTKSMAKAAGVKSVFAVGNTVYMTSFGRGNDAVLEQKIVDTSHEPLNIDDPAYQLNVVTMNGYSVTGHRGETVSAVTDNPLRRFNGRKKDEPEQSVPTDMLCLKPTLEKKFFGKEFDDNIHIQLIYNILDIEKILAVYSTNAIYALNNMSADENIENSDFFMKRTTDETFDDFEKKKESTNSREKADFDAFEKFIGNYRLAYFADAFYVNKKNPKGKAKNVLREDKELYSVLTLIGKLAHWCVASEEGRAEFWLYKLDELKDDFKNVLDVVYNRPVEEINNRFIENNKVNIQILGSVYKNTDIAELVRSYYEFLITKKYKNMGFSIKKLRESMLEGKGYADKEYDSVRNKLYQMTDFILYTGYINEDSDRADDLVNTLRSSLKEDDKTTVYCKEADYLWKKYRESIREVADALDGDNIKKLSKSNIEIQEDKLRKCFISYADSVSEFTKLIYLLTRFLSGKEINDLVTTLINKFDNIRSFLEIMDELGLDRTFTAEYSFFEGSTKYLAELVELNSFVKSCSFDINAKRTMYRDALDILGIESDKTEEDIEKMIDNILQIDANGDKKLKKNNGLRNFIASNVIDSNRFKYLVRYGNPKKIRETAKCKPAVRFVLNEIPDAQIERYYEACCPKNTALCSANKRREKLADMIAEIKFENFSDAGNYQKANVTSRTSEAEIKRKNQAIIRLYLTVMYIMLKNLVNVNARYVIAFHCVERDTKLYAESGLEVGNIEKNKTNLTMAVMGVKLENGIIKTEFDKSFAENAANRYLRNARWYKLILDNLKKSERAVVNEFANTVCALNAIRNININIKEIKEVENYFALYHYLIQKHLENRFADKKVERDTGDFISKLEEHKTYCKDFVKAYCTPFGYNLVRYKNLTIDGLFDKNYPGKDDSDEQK

B1: target 1 insG 3' of 21,insU 3' of 1 (mixed)
RNA 1: CACCCGUGCAAAAAUGCAGGGGUCUAAAACUGAGCGGAUAACCUCUCUAUGG
RNA 2: GGGAAUGGAUCCACAUCUACGAAUUCGUACCGAUAGAGAGGUUAUCCGCUCAUCCGAGAUCGGAAGAGCACACGU
B2: target 1 U3A,C6U (mixed)
RNA 1: CACCCGUGCAAAAAUGCAGGGGUCUAAAACUGAGCGGAUAACCUCUCUAUGG
RNA 2: GGGAAUGGAUCCACAUCUACGAAUUCGUACCAUAGAGAGGUUAUCUGCACACCGAGAUCGGAAGAGCACACGU
B3: target 1 insC 3' of 8,insU 3' of 7 (mixed)
RNA 1: CACCCGUGCAAAAAUGCAGGGGUCUAAAACUGAGCGGAUAACCUCUCUAUGG
RNA 2: GGGAAUGGAUCCACAUCUACGAAUUCGUACCAUAGAGAGGUUAUCCUCGCUCACCGAGAUCGGAAGAGCACACGU
B4: target 1 U11G,A14G (mixed)
RNA 1: CACCCGUGCAAAAAUGCAGGGGUCUAAAACUGAGCGGAUAACCUCUCUAUGG
RNA 2: GGGAAUGGAUCCACAUCUACGAAUUCGUACCAUAGAGGGGGUAUCCGCUCACCGAGAUCGGAAGAGCACACGU
B5: target 3 insU 3' of 6,insA 3' of 6 (mixed)
RNA 1: CACCCGUGCAAAAUUGCAGGGGUCUAAAACGACCUGAAUAUUUCAGAUCAAA
RNA 2: GGGAAUGGAUCCACAUCUACGAAUUCGUUUUUGAUCUGAAAUAUUCUAAGGUCUGCAGAUCGGAAGAGCACACGU
B6: target 3 G4C,U7G (mixed)
RNA 1: CACCCGUGCAAAAUUGCAGGGGUCUAAAACGACCUGAAUAUUUCAGAUCAAA
RNA 2: GGGAAUGGAUCCACAUCUACGAAUUCGUUUUUGAUCUGAAAUAUGCACGUCUGCAGAUCGGAAGAGCACACGU
B7: target 3 U2G,U7C (mixed)
RNA 1: CACCCGUGCAAAAUUGCAGGGGUCUAAAACGACCUGAAUAUUUCAGAUCAAA
RNA 2: GGGAAUGGAUCCACAUCUACGAAUUCGUUUUUGAUCUGAAAUAUCCAGGGCUGCAGAUCGGAAGAGCACACGU
B8: target 3 G3A,A18G (mixed)
RNA 1: CACCCGUGCAAAAUUGCAGGGGUCUAAAACGACCUGAAUAUUUCAGAUCAAA
RNA 2: GGGAAUGGAUCCACAUCUACGAAUUCGUUUUUGGUCUGAAAUAUUCAGAUCUGCAGAUCGGAAGAGCACACGU
B9: target 3 insG 3' of 22,insG 3' of 5 (mixed)
RNA 1: CACCCGUGCAAAAUUGCAGGGGUCUAAAACGACCUGAAUAUUUCAGAUCAAA
RNA 2: GGGAAUGGAUCCACAUCUACGAAUUCGUUUGUUGAUCUGAAAUAUUCAGGGUCUGCAGAUCGGAAGAGCACACGU
B10: target 3 C1G,A9C (mixed)
RNA 1: CACCCGUGCAAAAUUGCAGGGGUCUAAAACGACCUGAAUAUUUCAGAUCAAA
RNA 2: GGGAAUGGAUCCACAUCUACGAAUUCGUUUUUGAUCUGAAAUCUUCAGGUGUGCAGAUCGGAAGAGCACACGU
B11: target 3 U2A,U21A (mixed)
RNA 1: CACCCGUGCAAAAUUGCAGGGGUCUAAAACGACCUGAAUAUUUCAGAUCAAA
RNA 2: GGGAAUGGAUCCACAUCUACGAAUUCGUUUAUGAUCUGAAAUAUUCAGGACUGCAGAUCGGAAGAGCACACGU
B12: target 3 insA 3' of 8 (mixed)
RNA 1: CACCCGUGCAAAAUUGCAGGGGUCUAAAACGACCUGAAUAUUUCAGAUCAAA
RNA 2: GGGAAUGGAUCCACAUCUACGAAUUCGUUUUUGAUCUGAAAUAUAUCAGGUCUGCAGAUCGGAAGAGCACACGU
B13: target 3 insG 3' of 5,insU 3' of 4 (mixed)
RNA 1: CACCCGUGCAAAAUUGCAGGGGUCUAAAACGACCUGAAUAUUUCAGAUCAAA
RNA 2: GGGAAUGGAUCCACAUCUACGAAUUCGUUUUUGAUCUGAAAUAUUCAGGUGUCUGCAGAUCGGAAGAGCACACGU
B14: target 3 G4A,U7C (mixed)
RNA 1: CACCCGUGCAAAAUUGCAGGGGUCUAAAACGACCUGAAUAUUUCAGAUCAAA
RNA 2: GGGAAUGGAUCCACAUCUACGAAUUCGUUUUUGAUCUGAAAUAUCCAAGUCUGCAGAUCGGAAGAGCACACGU
B15: target 3 insU 3' of 22,insC 3' of 4 (mixed)
RNA 1: CACCCGUGCAAAAUUGCAGGGGUCUAAAACGACCUGAAUAUUUCAGAUCAAA
RNA 2: GGGAAUGGAUCCACAUCUACGAAUUCGUUUUUUGAUCUGAAAUAUUCAGCGUCUGCAGAUCGGAAGAGCACACGU
B16: target 3 G3A,C6G (mixed)
RNA 1: CACCCGUGCAAAAUUGCAGGGGUCUAAAACGACCUGAAUAUUUCAGAUCAAA
RNA 2: GGGAAUGGAUCCACAUCUACGAAUUCGUUUUUGAUCUGAAAUAUUGAGAUCUGCAGAUCGGAAGAGCACACGU
B17: target 3 complement block 5-9 (mixed)
RNA 1: CACCCGUGCAAAAUUGCAGGGGUCUAAAACGACCUGAAUAUUUCAGAUCAAA
RNA 2: GGGAAUGGAUCCACAUCUACGAAUUCGUUUUUGAUCUGAAAUUAAGUGGUCUGCAGAUCGGAAGAGCACACGU
B18: target 3 U2C,U22A (mixed)
RNA 1: CACCCGUGCAAAAUUGCAGGGGUCUAAAACGACCUGAAUAUUUCAGAUCAAA
RNA 2: GGGAAUGGAUCCACAUCUACGAAUUCGUUAUUGAUCUGAAAUAUUCAGGCCUGCAGAUCGGAAGAGCACACGU
B19: target 3 insC 3' of 11,insA 3' of 2 (mixed)
RNA 1: CACCCGUGCAAAAUUGCAGGGGUCUAAAACGACCUGAAUAUUUCAGAUCAAA
RNA 2: GGGAAUGGAUCCACAUCUACGAAUUCGUUUUUGAUCUGAAACUAUUCAGGUACUGCAGAUCGGAAGAGCACACGU
B20: target 3 A5C,C6G (mixed)
RNA 1: CACCCGUGCAAAAUUGCAGGGGUCUAAAACGACCUGAAUAUUUCAGAUCAAA
RNA 2: GGGAAUGGAUCCACAUCUACGAAUUCGUUUUUGAUCUGAAAUAUUGCGGUCUGCAGAUCGGAAGAGCACACGU
B21: target 3 A13G,A18G (mixed)
RNA 1: CACCCGUGCAAAAUUGCAGGGGUCUAAAACGACCUGAAUAUUUCAGAUCAAA
RNA 2: GGGAAUGGAUCCACAUCUACGAAUUCGUUUUUGGUCUGGAAUAUUCAGGUCUGCAGAUCGGAAGAGCACACGU
B22: target 3 C6U,A11G (mixed)
RNA 1: CACCCGUGCAAAAUUGCAGGGGUCUAAAACGACCUGAAUAUUUCAGAUCAAA
RNA 2: GGGAAUGGAUCCACAUCUACGAAUUCGUUUUUGAUCUGAAGUAUUUAGGUCUGCAGAUCGGAAGAGCACACGU
B23: target 3 A11G,A12G (mixed)
RNA 1: CACCCGUGCAAAAUUGCAGGGGUCUAAAACGACCUGAAUAUUUCAGAUCAAA
RNA 2: GGGAAUGGAUCCACAUCUACGAAUUCGUUUUUGAUCUGAGGUAUUCAGGUCUGCAGAUCGGAAGAGCACACGU
B24: target 3 A11C,G14U (mixed)
RNA 1: CACCCGUGCAAAAUUGCAGGGGUCUAAAACGACCUGAAUAUUUCAGAUCAAA
RNA 2: GGGAAUGGAUCCACAUCUACGAAUUCGUUUUUGAUCUUAACUAUUCAGGUCUGCAGAUCGGAAGAGCACACGU
B25: target 3 insG 3' of 5,insC 3' of 3 (mixed)
RNA 1: CACCCGUGCAAAAUUGCAGGGGUCUAAAACGACCUGAAUAUUUCAGAUCAAA
RNA 2: GGGAAUGGAUCCACAUCUACGAAUUCGUUUUUGAUCUGAAAUAUUCAGGGCUCUGCAGAUCGGAAGAGCACACGU
B26: target 3 G3U,U7G (mixed)
RNA 1: CACCCGUGCAAAAUUGCAGGGGUCUAAAACGACCUGAAUAUUUCAGAUCAAA
RNA 2: GGGAAUGGAUCCACAUCUACGAAUUCGUUUUUGAUCUGAAAUAUGCAGUUCUGCAGAUCGGAAGAGCACACGU
B27: target 3 insG 3' of 2,insA 3' of 2 (mixed)
RNA 1: CACCCGUGCAAAAUUGCAGGGGUCUAAAACGACCUGAAUAUUUCAGAUCAAA
RNA 2: GGGAAUGGAUCCACAUCUACGAAUUCGUUUUUGAUCUGAAAUAUUCAGGUGACUGCAGAUCGGAAGAGCACACGU
B28: target 3 insU 3' of 11 (mixed)
RNA 1: CACCCGUGCAAAAUUGCAGGGGUCUAAAACGACCUGAAUAUUUCAGAUCAAA
RNA 2: GGGAAUGGAUCCACAUCUACGAAUUCGUUUUUGAUCUGAAAUUAUUCAGGUCUGCAGAUCGGAAGAGCACACGU

Biological target: T1, EsCas13d, nuclease-dead
Assay: crRNA (strand 1, pre-loaded); Mg2+; 40 mM Tris-HCl pH 7.5, 150 mM NaCl, 6 mM MgCl2, 1 mM DTT, 0.1% Tween-20, 0.2 mg/ml BSA; 25 C; 10 min per concentration, then washed
Conditions: tags: His6-TwinStrep-SUMO cleaved; N-terminal SNAP kept (SNAP-Surface 488); label: 3' end held by stalled T7 RNA polymerase

Binder	Kd
B1	71 ± 12 nM
B2	5.27 ± 0.27 nM
B3	13.6 ± 1.1 nM
B4	22.1 ± 1.3 nM
B5	8.69 ± 0.57 nM
B6	44.1 ± 4.1 nM
B7	28 ± 4.5 nM
B8	55 ± 13 nM
B9	41.5 ± 18 nM
B10	54 ± 18 nM
B11	39.5 ± 6 nM
B12	50.5 ± 10 nM
B13	20.4 ± 1.8 nM
B14	71 ± 12.5 nM
B15	19.5 ± 4.5 nM
B16	46.5 ± 7 nM
B17	90 ± 9.5 nM
B18	77.5 ± 14 nM
B19	45.5 ± 11.5 nM
B20	53.5 ± 5.5 nM
B21	~100 nM
B22	47 ± 10.5 nM
B23	73 ± 29.5 nM
B24	56.5 ± 27 nM
B25	76 ± 12.5 nM
B26	33.1 ± 4.2 nM
B27	20.3 ± 2.6 nM
B28	81 ± 31 nM

Reference: publication PMC10786891, “Massively parallel profiling of RNA-targeting CRISPR-Cas13d”
